From doi:10.1101/369454
Values belong to the substance of their own block, whether it stands above or below them.

Legend:
[1] = biological target: K49C W96C Ta16.9 (Ta_(dimer)), reduced (wheat (Triticum aestivum)) (UniProt Q41560); test: dynamic light scattering
[2] = biological target: E81C V151C Ps18.1 (Ps_(CT-ACD)), reduced (Pisum sativum) (UniProt P19243); test: dynamic light scattering
[3] = biological target: Ps18.1, cytosolic class-I small heat-shock protein from Pisum sativum, wild type (Pisum sativum) (UniProt P19243); test: dynamic light scattering
[4] = biological target: Ps18.1, cytosolic class-I small heat-shock protein from Pisum sativum, wild type (Pisum sativum) (UniProt P19243); test: SAXS
[5] = biological target: E74C V144C Ta16.9 (Ta_(CT-ACD)), reduced (wheat (Triticum aestivum)) (UniProt Q41560); test: native MS
[6] = biological target: E74C V144C Ta16.9 (Ta_(CT-ACD)), reduced (wheat (Triticum aestivum)) (UniProt Q41560); test: dynamic light scattering
[7] = biological target: K49C W96C Ta16.9 (Ta_(dimer)), oxidized: disulfide bonded at the dimeric interface (wheat (Triticum aestivum)) (UniProt Q41560); test: dynamic light scattering
[8] = biological target: K49C W96C Ta16.9 (Ta_(dimer)), oxidized: disulfide bonded at the dimeric interface (wheat (Triticum aestivum)) (UniProt Q41560); test: SEC
[9] = biological target: K49C W96C Ta16.9 (Ta_(dimer)), oxidized: disulfide bonded at the dimeric interface (wheat (Triticum aestivum)) (UniProt Q41560); test: cross-linking

Substance: E81C V151C Ps18.1 (Ps_(CT-ACD)), reduced (from UniProt P19243 1-158) (natural protein)
- stoichiometry N [2]: 12

Substance: Ps18.1, cytosolic class-I small heat-shock protein from Pisum sativum, wild type (from UniProt P19243 1-158) (natural protein)
- stoichiometry N [3]: 12
- stoichiometry N [4]: 12

Substance: K49C W96C Ta16.9 (Ta_(dimer)), oxidized: disulfide bonded at the dimeric interface (from UniProt Q41560 1-151) (natural protein)
- stoichiometry N [7]: 12
- stoichiometry N [8]: 12
- size of the disulfide-linked covalent unit [9]: 2 chains

Continued, values first:

- stoichiometry N [1]: 12
Substance: K49C W96C Ta16.9 (Ta_(dimer)), reduced (from UniProt Q41560 1-151) (natural protein)

- stoichiometry N [5]: 12
- stoichiometry N [6]: 12
Substance: E74C V144C Ta16.9 (Ta_(CT-ACD)), reduced (from UniProt Q41560 1-151) (natural protein)
